B1: GDF-15: secreted ligand of the TGF superfamily of proteins; human GDF-15 protein, SEQ ID NO: 1 (protein, listed as Homo sapiens)
chain: MPGQELRTVNGSQMLLVLLVLSWLPHGGALSLAEASRASFPGPSELHSEDSRFRELRKRYEDLLTRLRANQSWEDSNTDLVPAPAVRILTPEVRLGSGGHLHLRISRAALPEGLPEASRLHRALFRLSPTASRSWDVTRPLRRQLSLARPQAPALHLRLSPPPSQSDQLLAESSSARPQLELHLRPQAARGRRRARARNGDHCPLGPGRCCRLHTVRASLEDLGWADWVLSPREVQVTMCIGACPSQFRAANMHAQIKTSLHRLKPDTVPAPCCVPASYNPMVLIQKTDTGVSLQTYDDLLAKDCHCI

Experiments:
ESC-NPCs = experiment: GDF-11-induced upregulation of EMT marker Fibronectin in ESC-NPCs (immunofluorescence); assay type: cell-based; conditions: ESC-derived NPCs
Procedure: FIG. 1. Smad2 inhibition (A) or simultaneous culture with GDF-15 (B) blocks GDF-11-induced upregulation of EMT marker Fibronectin in ESC-NPCs. Scale bar=100 μm.
(A) ESC-derived NPCs were pre-treated with DMSO or Smad2 inhibitor SB431542 (10 μM) for 1 h and then co-treated with PBS or GDF-11 (50 ng/ml) for another 7 days before harvest. (B) SC-derived NPCs were pre-treated with PBS or GDF-15 (50 ng/ml) for 1 h and then co-treated with PBS or GDF-11 (16.7 ng/ml) for another 7 days before harvest. GDF-15 was added daily while SB431542 and GDF-11 was only added one time in the beginning. Nucleus (DPAI) and EMT (Fibronectin) marker were then detected by immunofluorescence.

ARPE-19 cells = experiment: TGFβ-2-induced upregulation of phosph-Smad2 and EMT marker Fibronectin in ARPE-19 cells (Western blot); assay type: cell-based, Human; conditions: N=3, P<0.05
Procedure: FIG. 2: Simultaneous culture with GDF-15 reduces TGFβ-2-induced upregulation of phosph-Smad2 (A) and EMT marker Fibronectin (B) in ARPE-19 cells. (N=3, *P<0.05).
(N=3, *P<0.05). Human adult retinal pigment epithelial cells (ARPE-19) were pre-treated with PBS or GDF-15 (50 ng/ml) for 1 h and then co-treated with PBS or TGFβ-2 (1 ng/ml) for another hour (A) or 2 days (B) before harvest. For Fibronection detection, GDF-15 was added daily while TGFβ-2 was only added one time in the beginning. GAPDH (loading control), p-Smad2 and Fibronectin proteins were then detected by Western blot.

Molecule | GDF-11-induced upregulation of EMT marker Fibronectin (ESC-NPCs; SB431542 10 μM pre-treated 1 h, then co-treated with GDF-11 (50 ng/ml) 7 days) | GDF-11-induced upregulation of EMT marker Fibronectin (ESC-NPCs; GDF-15 50 ng/ml pre-treated 1 h (added daily), then co-treated with GDF-11 (16.7 ng/ml) 7 days) | TGFβ-2-induced upregulation of EMT marker Fibronectin (ARPE-19 cells; GDF-15 50 ng/ml pre-treated 1 h (added daily), then co-treated with TGFβ-2 (1 ng/ml) 2 days) | TGFβ-2-induced upregulation of phosph-Smad2 (ARPE-19 cells; GDF-15 50 ng/ml pre-treated 1 h, then co-treated with TGFβ-2 (1 ng/ml) another hour)
NC(=O)c1ccc(-c2nc(-c3ccc4c(c3)OCO4)c(-c3ccccn3)[nH]2)cc1 [SB431542, reference compound] | blocks |  |  | 
B1 |  | blocks | reduces | reduces

From patent US12728152B2, “Growth and differentiation factor 15 for treatment of proliferative vitreoretinopathy therapy” (The Board of Trustees of the Leland Stanford Junior …, priority 2020, dated 2026)
